From article PMC9174452

What was measured:
[1] = molecular target: C3d^A4H-C3d^W41A heterodimer (human)
[2] = molecular target: human C3d^17A (monomeric) (human); assay: near-UV circular dichroism thermal melt; 87.5 µM C3d^17C or C3d^17A alone or with an equimolar concentration of the Sbi construct, 10 mM sodium phosphate pH 7.4, 250-320 nm, 5°C to 85°C; Tm from Boltzmann sigmoidal fits at 280 and 296 nm

Substance | increase in tryptophan fluorescence intensity of the C3d^A4H/C3d^W41A solution (100 µM, equimolar Sbi construct, excitation 295 nm), read as N-terminal helix swap [1] [%] | increase in melting temperature (Tm) of C3d^17A [2] [°C] | change in tryptophan fluorescence intensity of the C3d^A4H/C3d^W41A solution (100 µM, equimolar Sbi construct, excitation 295 nm), read as N-terminal helix swap [1] [%]
Sbi domain IV (wild-type Sbi-IV) (from UniProt Q2FVK5 198-266) (domain or fragment) | 27 |  | 
Sbi domains III and IV (wild-type Sbi-III-IV) (from UniProt Q2FVK5 150-266) (domain or fragment) | 17 |  | 
truncated Sbi-IV mutant Sbi-IV^V198-D208del (from UniProt Q2FVK5 198-266) (domain or fragment) |  | 6.5 | 2.5
